We go through four sequences from patent US10500249B2, “Compositions and methods for preventing or treating diseases, conditions, or processes characterized by aberrant fibroblast proliferation and extracellular matrix deposition” (MOERAE MATRIX, INC., priority 2014, dated 2019).

Common to all, as to assay: Kinase Profiling Assay
Holding throughout (format): biochemical
Conditions in all cases: 100 μM

One assay deals with T1, EphB3 (h) (Homo sapiens, UniProt P54753).
T1 sequence (P54753 34-998): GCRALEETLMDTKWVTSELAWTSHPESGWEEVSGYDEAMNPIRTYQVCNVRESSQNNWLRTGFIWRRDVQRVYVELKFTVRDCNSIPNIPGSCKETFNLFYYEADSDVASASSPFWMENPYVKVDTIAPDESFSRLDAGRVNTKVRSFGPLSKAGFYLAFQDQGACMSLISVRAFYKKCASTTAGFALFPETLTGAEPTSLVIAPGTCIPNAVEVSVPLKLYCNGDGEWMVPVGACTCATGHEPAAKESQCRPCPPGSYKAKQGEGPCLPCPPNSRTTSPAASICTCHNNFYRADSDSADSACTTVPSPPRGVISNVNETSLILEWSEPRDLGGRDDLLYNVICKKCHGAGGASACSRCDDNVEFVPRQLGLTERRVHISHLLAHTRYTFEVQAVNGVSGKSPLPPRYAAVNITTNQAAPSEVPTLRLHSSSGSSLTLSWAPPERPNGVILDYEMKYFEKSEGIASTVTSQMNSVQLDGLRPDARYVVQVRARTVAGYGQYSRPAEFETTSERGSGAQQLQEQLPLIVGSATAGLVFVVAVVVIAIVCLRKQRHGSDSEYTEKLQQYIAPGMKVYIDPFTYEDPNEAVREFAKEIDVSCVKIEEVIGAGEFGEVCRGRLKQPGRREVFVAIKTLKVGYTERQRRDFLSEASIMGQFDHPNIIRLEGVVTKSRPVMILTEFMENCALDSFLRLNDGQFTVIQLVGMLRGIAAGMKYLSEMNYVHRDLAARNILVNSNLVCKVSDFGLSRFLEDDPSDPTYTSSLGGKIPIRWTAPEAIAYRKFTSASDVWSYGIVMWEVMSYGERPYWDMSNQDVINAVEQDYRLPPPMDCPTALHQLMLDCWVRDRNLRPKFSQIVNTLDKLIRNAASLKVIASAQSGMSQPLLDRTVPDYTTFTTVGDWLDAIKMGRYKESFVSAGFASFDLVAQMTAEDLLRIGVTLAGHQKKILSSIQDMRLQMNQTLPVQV
In short, it runs like this:
(§1)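 Kinase inhibition by MK2 inhibitory peptides was profiled radiometrically, with substrate phosphorylation from labeled ATP read by scintillation after capture on a charged filter. Values are relative to 100% activity and measured in duplicate.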

The next assay has as its target T2, PKCβI (h) (Homo sapiens, UniProt P05771).
T2 construct: purchased Millipore
A digest of the protocol:
as §1

For the next assay, the target named is Src(T341M) (h) (Homo sapiens, UniProt P12931, T341M). In short, it runs like this:
as §1

For the next assay, the target named is T3, PKBβ (h) (Homo sapiens, UniProt P31751).
T3 construct: purchased Millipore
In short, it runs like this:
as §1

The next assay addresses T4, EphA1 (h) (Homo sapiens, UniProt P21709).
T4 construct: purchased Millipore
T4 sequence (P21709 26-976): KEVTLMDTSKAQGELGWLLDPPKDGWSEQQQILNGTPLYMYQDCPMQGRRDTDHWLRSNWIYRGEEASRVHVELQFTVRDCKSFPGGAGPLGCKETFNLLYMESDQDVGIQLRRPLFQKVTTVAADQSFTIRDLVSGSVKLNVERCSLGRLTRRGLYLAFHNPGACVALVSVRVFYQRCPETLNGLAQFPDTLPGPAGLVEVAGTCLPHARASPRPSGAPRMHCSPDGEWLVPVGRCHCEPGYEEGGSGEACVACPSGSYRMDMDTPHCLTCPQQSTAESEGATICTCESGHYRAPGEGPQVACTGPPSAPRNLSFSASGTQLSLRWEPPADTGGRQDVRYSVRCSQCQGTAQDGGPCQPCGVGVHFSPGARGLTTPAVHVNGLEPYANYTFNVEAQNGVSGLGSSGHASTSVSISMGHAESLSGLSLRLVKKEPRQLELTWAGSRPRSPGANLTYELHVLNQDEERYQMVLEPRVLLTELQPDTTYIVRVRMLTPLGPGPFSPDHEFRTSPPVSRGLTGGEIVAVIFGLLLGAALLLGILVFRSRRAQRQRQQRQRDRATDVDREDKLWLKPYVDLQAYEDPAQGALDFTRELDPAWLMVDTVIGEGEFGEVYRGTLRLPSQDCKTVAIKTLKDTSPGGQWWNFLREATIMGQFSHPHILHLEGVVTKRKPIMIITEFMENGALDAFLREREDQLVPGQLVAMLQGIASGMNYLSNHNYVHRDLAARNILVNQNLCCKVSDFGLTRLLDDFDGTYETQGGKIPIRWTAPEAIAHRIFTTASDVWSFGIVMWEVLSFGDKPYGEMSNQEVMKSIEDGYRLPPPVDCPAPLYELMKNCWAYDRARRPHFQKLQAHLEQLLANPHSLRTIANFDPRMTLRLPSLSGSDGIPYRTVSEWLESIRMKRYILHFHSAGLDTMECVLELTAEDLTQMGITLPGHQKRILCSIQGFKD
A digest of the protocol: as §1

T3 sequence (P31751 whole entry): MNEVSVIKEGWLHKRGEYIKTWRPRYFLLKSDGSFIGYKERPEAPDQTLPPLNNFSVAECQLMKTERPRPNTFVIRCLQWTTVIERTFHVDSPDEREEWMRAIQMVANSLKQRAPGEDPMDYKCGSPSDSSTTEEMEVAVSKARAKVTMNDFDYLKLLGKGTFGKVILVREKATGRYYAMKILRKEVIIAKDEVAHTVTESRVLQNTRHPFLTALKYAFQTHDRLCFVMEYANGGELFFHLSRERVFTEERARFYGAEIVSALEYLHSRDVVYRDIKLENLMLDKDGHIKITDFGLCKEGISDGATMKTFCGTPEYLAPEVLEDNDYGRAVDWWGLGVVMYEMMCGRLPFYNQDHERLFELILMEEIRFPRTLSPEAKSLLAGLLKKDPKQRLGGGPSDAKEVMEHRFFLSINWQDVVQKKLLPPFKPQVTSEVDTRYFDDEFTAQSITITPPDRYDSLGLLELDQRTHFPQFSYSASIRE
T2 sequence (P05771 whole entry): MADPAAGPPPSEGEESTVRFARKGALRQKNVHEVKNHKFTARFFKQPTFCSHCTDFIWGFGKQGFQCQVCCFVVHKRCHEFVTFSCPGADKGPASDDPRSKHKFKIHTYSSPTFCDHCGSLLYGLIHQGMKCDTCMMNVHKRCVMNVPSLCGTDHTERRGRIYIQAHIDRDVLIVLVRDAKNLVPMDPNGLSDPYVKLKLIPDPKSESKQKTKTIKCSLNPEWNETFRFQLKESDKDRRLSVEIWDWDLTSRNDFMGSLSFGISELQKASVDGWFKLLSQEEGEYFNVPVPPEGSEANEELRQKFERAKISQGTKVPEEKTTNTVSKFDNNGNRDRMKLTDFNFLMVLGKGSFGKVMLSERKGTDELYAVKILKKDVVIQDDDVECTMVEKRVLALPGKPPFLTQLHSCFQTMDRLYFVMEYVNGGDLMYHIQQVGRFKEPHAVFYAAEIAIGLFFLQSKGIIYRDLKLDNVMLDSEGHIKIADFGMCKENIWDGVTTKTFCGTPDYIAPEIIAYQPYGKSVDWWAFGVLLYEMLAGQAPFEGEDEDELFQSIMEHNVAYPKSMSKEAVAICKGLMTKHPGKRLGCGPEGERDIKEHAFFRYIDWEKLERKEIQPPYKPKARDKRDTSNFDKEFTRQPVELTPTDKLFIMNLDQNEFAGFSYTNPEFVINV

With KAFAKLAARLYRKALARQLGVAA [MMI-0400], the “% activity” value is given as 47% with EphB3 (h); 78% in the assay with PKCβI (h); 76% in the assay with Src(T341M) (h); 98% with PKBβ (h); 61% with EphA1 (h).
For “YARAAARQARAKALNRQLGVA (Mammalian) [MMI-0200]”, the “% activity” value is 128% with EphB3 (h), 98% with PKCβI (h), 56% with Src(T341M) (h) and 250% in the assay with PKBβ (h).
Regarding “HRRIKAWLKKIKALARQLGVAA (Mammalian) [MMI-0500]”, the “% activity” value was determined as 79% with EphB3 (h); 1% with PKCβI (h); 59% with Src(T341M) (h); 21% with PKBβ (h); 40% with EphA1 (h).
In the case of FAKLAARLYRKALARQLGVAA [MMI-0300], the “% activity” value with EphB3 (h) is 62%; with PKCβI (h), 78%; with Src(T341M) (h) it was 70%; with PKBβ (h), 84%; with EphA1 (h) it was 73%.
